Reference: the nanobody polyreactivity screen of Harvey et al. (2022)

Assay: yeast display, Sf9 membrane polyspecificity reagent, FACS + sequencing; frameworks hold sequencing errors
Outline: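 Galactose-induced (36–48 hours) yeast carrying a synthetic nanobody display library were exposed to 10% biotinylated, detergent-solubilized Sf9 membrane reagent at 4 °C for 1 hour. FACS followed streptavidin microbead enrichment, using low and high (top ~1%) gates for expression (anti-HA) and reagent binding (streptavidin). Colony PCR, MiSeq 2 × 250 sequencing and CDR-length filtering followed. Labels for polyreactivity reflect the gate of origin.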

| Sequence | polyreactivity (PSR sort gate) |
| --- | --- |
| QVQLVESGGGLVQAGGSLRLSCAASGFIYPYYAMGCYIQAPGKETELVAGISKSGGRTTYADSVKGRFTISRDNAKNTVYLQMNSLKPEDTAVYYCAAVYRAFPIYEDDYWGQGTQVTVSS | high polyreactivity |
| QVQLVESGGGLVQAGGSLRLSCAASGFIYSGYAIGCYRQAPAKERELVDTNSGSGGSTYYADSVKGRFTISRDNAKNTVYLKMNSLKTEDTAVYYCAARQRGGYGYWGQGTQVTESS | high polyreactivity |
| QVQLVESGGGLVQAGGSLRLSCAASGFIYSSYAMGWYRQAPGKERELVAAITRNGGSTYYADSVKGRFTISRDNAKNTVYLQMNSLKPEDTAVYYCAAPRWRGVGRFDYWGQGSQVTVSS | high polyreactivity |
| QVQLVESGGGLVQAGGSLRLSCAASGFIYYSYTMGWYRQAPGKERELVATISSNGGRTYYADSVKGRYTISRDNAKNTVYLQMNSLKPEDTAVYYCATDVPHGYYWSYGDYYWGQRTQVTVSS | low polyreactivity |
| QVQLVESGGGLVQAGGSLRLSCAASGFLFDFYPLGWYRPAPGKDRELVAAITNGGSTYYADSVKGRFTISRDNAKNTDYLQMNSLKPEDTAVYYCAAYYRSRHHGYDSCGQGTQVTVSS | low polyreactivity |
| QVQLVESGGGLVQAGGSLRLSCAASGFMFDDNAMGWYRQAPRKERELVAAITSGGGSTYYADSVKGRFTISRDYAKITVYLLMNSLKPEDTAVYYCAAGGYPSLLHDYDYWGQGTQVTVSS | low polyreactivity |
| QVQLVESGGGLVQAGGSLRLSCAASGFNFGNYAMGWYRQAPGKERELVAVISRGGSTYYADSVKGRFTISRDYAKNSVYLQMNSLKPEDTAVYFCAARAFPPYGYDYWGQGTQVTVSS | high polyreactivity |
| QVQLVESGGGLVQAGGSLRLSCAASGFNFNYNAMGRYREAPGKERELVAAISTSGSSTYYADSVKGRFTISRDNAKNTVYLQMNSLKPEDTAVYYCAARRSTRHRYRVGTCYKYDYWGQGTQVTVSS | high polyreactivity |
| QVQLVESGGGLVQAGGSLRLSCAASGFNFPDYAMGWYRQAPGKETELVAAITSAGGRTYYADSVKGRFTISRDNAKNTVYLQMNSLKPEDTAVFYCNALTTKGTGTYNGGYWGEGTQVTVSS | high polyreactivity |
| QVQLVESGGGLVQAGGSLRLSCAASGFNFRTNAMGWYRQAPGKERELVAAISRSGNTYYADSVKGRFTISRDNAKNTVYLQMNSLKPEDTAVYYCAAQSVRWYSSFKYYYWRQGTQVTVSS | high polyreactivity |
| QVQLVESGGGLVQAGGSLRLSCAASGFNSHFYAMGSYRQAPGKEREFVDRISYSGGSTYYADSVKGRFTISRDNAKNTVYLQMNSLKPEDTAVYFCAADKHYFRHFGSWGQGTQVTVSS | low polyreactivity |
| QVQLVESGGGLVQAGGSLRLSCAASGFPIHAYVMGWYRQAPGKERELVAAISSGGSTYYADSVKGRFTISRDNAKKTVYLQMNSLKPEDTAVYYCAAGYPYYWHFDYWGQGTQVTVSS | low polyreactivity |
| QVQLVESGGGLVQAGGSLRLSCAASGFQYGMGWYRQAPGKERELVAAISRDGSTNYADSVKGRFTISRDNAKNTVYLQMNSLKPEDTAVYYCAVDFYFLYGWGQGTQVTVSS | low polyreactivity |
| QVQLVESGGGLVQAGGSLRLSCAASGFSFKLYAMGWYRQAPGKEREFVAAINRSGGSTYYADSVKGRFTISRDNAKNTVYLQMNSLKPEDTAVYYCAALAYTLYDYWGQGTQVTVSS | high polyreactivity |
| QVQLVESGGGLVQAGGSLRLSCAASGFSFKSYAMGWYRQAPGKERELVAAISRGTSTKYADSVKGRFTISRDNAKNTVYLQMNSLKPEDTAVYNCAALFPTSDLRLRYYRYDYWGQGTQVTVSS | low polyreactivity |
| QVQLVESGGGLVQAGGSLRLSCAASGFSFSRYAMGWYRQAPGKEREFVASITRRGGSTYYADSVKGRFTISRDNAKNTVYLQMNSLKPEDTAVYYCNAGYTWGRFEYWGQGTQVTVSS | high polyreactivity |
| QVQLVESGGGLVQAGGSLRLSCAASGFSFTSNAMAWYRQAPGKERELVAAITTRGGSTYYADSVKGRFTLSRDNAKNTVDLPMNSLKPEDTSVYYCAARYSYWGLLRYDYWGQGTQVTVSS | high polyreactivity |
| QVQLVESGGGLVQAGGSLRLSCAASGFTCASNDMGWSRQAPGKERELVAAITKGGGRTYYADSVKGRFTISRDNAKNTVYLQMNSLKPEDTAVYYCAARQLIKYDYWGPGTQVTVSS | low polyreactivity |
| QVQLVESGGGLVQAGGSLRLSCAASGFTCGSYTMGWYRQAPGKERELVAVISRSGSSTYYADSVKGRFTISRDNAKNTVYLQMNSLKPEDTAVYYCNADYSRLGYDYWGQGTQVTVSS | high polyreactivity |
| QVQLVESGGGLVQAGGSLRLSCAASGFTCTRNAMGWFRQAPGKERELVAAISSSAGSTSYADSVKGRFTISRDNAKNTDYLQMNSLKPEDTAVYYCATEGSYYSWVGKVGYRYQYHYWGQGTQVTVSS | high polyreactivity |
| QVQLVESGGGLVQAGGSLRLSCAASGFTFAANAMGWYRQAPGKERELVAAISSDSTYADSVKGRFTISRDNAKNTVYLQMNSLKPEDTAVYYCAKDRYIVNSPGLDYWGQGTQVTVSS | low polyreactivity |
